Results: patent US20180100009A1 (VHSQUARED, published 2018)

Key:
[1] = target: T1, TcdB from C. difficile ribotype 087 (Clostridium difficile ribotype 087, UniProt P18177 2-2366); experiment: ELISA: TcdB coat, quadrahead, detected with rabbit polyclonal anti-ICVD
T1 construct: also called 087 TcdB

[2] = target: T2, TcdA from C. difficile ribotype 087 (Clostridium difficile ribotype 087 …, UniProt P16154 1-2710); experiment: sandwich ELISA
T2 construct: also called 087 TcdA; TcdA 10463 (087)

[3] = target: T3, TcdA from C. difficile ribotype 027 (Clostridium difficile ribotype 027 …, UniProt P16154 1-2710); experiment: sandwich ELISA
T3 construct: also called 027 TcdA; TcdA R20291 (027)

[4] = target: T3, TcdA from C. difficile ribotype 027; experiment: sandwich ELISA: TcdB coat, quadrahead, TcdA 0-20 ng/ml, rabbit anti-TcdA pAb

Measured: binding result

B1: ID-3C (bispecific antibody)
chain: DVQLQESGGGLVQAGDSLRLSCAASGATLSSYTIGWFRQAPEKEREFVAGSSRDGRTNYYANSVKGRFTISRDNAKNTVYLQMNSLKPEDTAVYYCAAHTTSGVPVRERSYAYWGQGTQVTVSSGGGGSGGGGSGGGGSGGGGSDVQLQESGGGLVQAGGSLRLSCAASGATSDVYAIGWFRQVPGKEREFVATINRSGSDSYYADSVKGRFTISRDNAKNTVYLQMNSLKPEETAVYYCAASRSDCIGYGCRRVSQDYWGQGTQVTVSSGGGGSGGGGSGGGGSGGGGSDVQLQESGGGLVQAGGSLRLSCVISGMDFSHKPAGWFRQAPGKEREFVASITTRASTHYADSVKGRFTISRDNAKNTVYLEMNSLKPEDTAVYYCNSEYYWGQGTQVTVSSGGGGSGGGGSGGGGSGGGGSDVQLQESGGGLVQAGGSLRLSCAASGATFSSYYIGWFRQAPGKEREFVAAINGSGGNRISADSVKGRFTISRDNAKNTVYLQLNSLKPEDTAVYYCAASLTYYGRSARYDYWGQGTQVTVSS
binds: [1] | [2] | [3]

B2: ID-1C (bispecific antibody)
chain: DVQLQESGGGLVQAGGSLRLSCAASGATSDVYAIGWFRQVPGKEREFVATINRSGSDSYYADSVKGRFTISRDNAKNTVYLQMNSLKPEETAVYYCAASRSDCIGYGCRRVSQDYWGQGTQVTVSSGGGGSGGGGSGGGGSGGGGSDVQLQESGGGLVQAGGSLRLSCVISGMDFSHKPAGWFRQAPGKEREFVASITTRASTHYADSVKGRFTISRDNAKNTVYLEMNSLKPEDTAVYYCNSEYYWGQGTQVTVSSGGGGSGGGGSGGGGSGGGGSDVQLQESGGGLVQAGDSLRLSCAASGATLSSYTIGWFRQAPEKEREFVAGSSRDGRTNYYANSVKGRFTISRDNAKNTVYLQMNSLKPEDTAVYYCAAHTTSGVPVRERSYAYWGQGTQVTVSSGGGGSGGGGSGGGGSGGGGSDVQLQESGGGLVQAGGSLRLSCAASGATFSSYYIGWFRQAPGKEREFVAAINGSGGNRISADSVKGRFTISRDNAKNTVYLQLNSLKPEDTAVYYCAASLTYYGRSARYDYWGQGTQVTVSS
notes: also called 1D-1C
binds: [1] | [4] | [2]
